# Legend:
# full-length ClpB M394C = target: T1, full-length ClpB M394C (Thermus thermophilus, UniProt Q9RA63 1-854, M394C); assay: cross-linking; intermolecular disulfide between two single-cysteine variants, 50 μM each, 50 μM copper phenanthroline, 2 mM ADP, 50 mM Tris/HCl pH 7.5, 50 mM KCl, 5 mM MgCl2, 1 h at 37 °C; dimer separated on Superdex 200 26/60, non-reducing SDS-PAGE; conditions: both partners purified
# T1 construct: ClpB from Thermus thermophilus, full-length protein; source: E. coli BL21 (DE3) RIL, purified
# [1] = target: the molecule itself; assay: dynamic light scattering; 1–30 μM protein (monomeric units) in buffer A with 2 mM ATP and an ATP-regenerating system (phosphoenolpyruvate, pyruvate kinase); self-association
# ClpB NBD1-M A390C = target: T2, ClpB NBD1-M A390C (Thermus thermophilus, UniProt Q9RA63 141-534, A390C); assay: cross-linking; intermolecular disulfide between two single-cysteine variants, 50 μM each, 50 μM copper phenanthroline, 2 mM ADP, 50 mM Tris/HCl pH 7.5, 50 mM KCl, 5 mM MgCl2, 1 h at 37 °C; dimer separated on Superdex 200 26/60, non-reducing SDS-PAGE; conditions: both partners purified
# T2 construct: ClpB from Thermus thermophilus, NBD1 and M-domain, amino acids 141-534; source: E. coli BL21 (DE3) RIL, purified
# ClpB NBD1-M M394C = target: T3, ClpB NBD1-M M394C (Thermus thermophilus, UniProt Q9RA63 141-534, M394C); assay: as above; conditions: both partners purified
# T3 construct: ClpB from Thermus thermophilus, NBD1 and M-domain, amino acids 141-534; source: E. coli BL21 (DE3) RIL, purified
# [2] = target: the molecule itself; assay: SEC-MALS; Superdex 200 10/300 GL with multiangle static light scattering (SLS), buffer A (50 mM Tris/HCl pH 7.5, 50 mM KCl, 5 mM MgCl2, 2 mM EDTA); running buffer nucleotide-free or with 2 mM ADP or 2 mM ATP; 40 μl of 100 μM injected, about 2 μM at the detector; self-association induced by nucleotide
Binder,stoichiometry N [1],further results
"full-length ClpB P221C (natural protein, Thermus thermophilus, UniProt Q9RA63 1-854, looked up, ClpB from Thermus thermophilus, full-length protein; source: E. coli BL21 (DE3) RIL, purified) MNLERWTQAAREALAQAQVLAQRMKHQAIDLPHLWAVLLKDERSLAWRLLEKAGADPKALKELQERELARLPKVEGAEVGQYLTSRLSGALNRAEALMEELKDRYVAVDTLVLALAEATPGLPGLEALKGALKELRGGRTVQTEHAESTYNALEQYGIDLTRLAAEGKLDPVIGRDEEIRRVIQILLRRTKNNPVLIGEPGVGKTAIVEGLAQRIVKGDVCEGLKGKRIVSLQMGSLLAGAKYRGEFEERLKAVIQEVVQSQGEVILFIDELHTVVGAGKAEGAVDAGNMLKPALARGELRLIGATTLDEYREIEKDPALERRFQPVYVDEPTVEETISILRGLKEKYEVHHGVRISDSAIIAAATLSHRYITERRLPDKAIDLIDEAAARLRMALESAPEEIDALERKKLQLEIEREALKKEKDPDSQERLKAIEAEIAKLTEEIAKLRAEWEREREILRKLREAQHRLDEVRREIELAERQYDLNRAAELRYGELPKLEAEVEALSEKLRGARFVRLEVTEEDIAEIVSRWTGIPVSKLLEGEREKLLRLEEELHKRVVGQDEAIRAVADAIRRARAGLKDPNRPIGSFLFLGPTGVGKTELAKTLAATLFDTEEAMIRIDMTEYMEKHAVSRLIGAPPGYVGYEEGGQLTEAVRRRPYSVILFDEIEKAHPDVFNILLQILDDGRLTDSHGRTVDFRNTVIILTSNLGSPLILEGLQKGWPYERIRDEVFKVLQQHFRPEFLNRLDEIVVFRPLTKEQIRQIVEIQLSYLRARLAEKRISLELTEAAKDFLAERGYDPVFGARPLRRVIQRELETPLAQKILAGEVKEGDRVQVDVGPAGLVFAVPARVEA",–,binding result (full-length ClpB M394C): binds
"ClpB NBD1-M R322A/R323A (domain or fragment, ClpB from Thermus thermophilus, NBD1 and M-domain, amino acids 141-534; also called double mutant; source: E. coli BL21 (DE3) RIL, purified) not shown",2,–
"ClpB NBD1-M R323A (domain or fragment, ClpB from Thermus thermophilus, NBD1 and M-domain, amino acids 141-534; also called single mutant R323A; source: E. coli BL21 (DE3) RIL, purified) not shown",2,–
"ClpB NBD1-M Q184C (domain or fragment, ClpB from Thermus thermophilus, NBD1 and M-domain, amino acids 141-534; source: E. coli BL21 (DE3) RIL, purified) not shown",–,binding result (ClpB NBD1-M A390C): binds
"ClpB NBD1-M R322A (domain or fragment, ClpB from Thermus thermophilus, NBD1 and M-domain, amino acids 141-534; also called single mutant R322A; source: E. coli BL21 (DE3) RIL, purified) not shown",2,–
"ClpB NBD1-M P221C (domain or fragment, Thermus thermophilus, UniProt Q9RA63 141-534, looked up, ClpB from Thermus thermophilus, NBD1 and M-domain, amino acids 141-534; source: E. coli BL21 (DE3) RIL, purified) VQTEHAESTYNALEQYGIDLTRLAAEGKLDPVIGRDEEIRRVIQILLRRTKNNPVLIGEPGVGKTAIVEGLAQRIVKGDVCEGLKGKRIVSLQMGSLLAGAKYRGEFEERLKAVIQEVVQSQGEVILFIDELHTVVGAGKAEGAVDAGNMLKPALARGELRLIGATTLDEYREIEKDPALERRFQPVYVDEPTVEETISILRGLKEKYEVHHGVRISDSAIIAAATLSHRYITERRLPDKAIDLIDEAAARLRMALESAPEEIDALERKKLQLEIEREALKKEKDPDSQERLKAIEAEIAKLTEEIAKLRAEWEREREILRKLREAQHRLDEVRREIELAERQYDLNRAAELRYGELPKLEAEVEALSEKLRGARFVRLEVTEEDIAEIVSRWT",–,binding result (ClpB NBD1-M M394C): binds
"cross-linked NBD1-M dimer wild-type (P221C/M394C disulfide) (complex, intermolecular disulfide bond between P221C of this chain and M394C of the other chain | intermolecular disulfide bond between M394C of this chain and P221C of the other chain, ClpB from Thermus thermophilus, NBD1 and M-domain, amino acids 141-534; also called cross-linked wild-type dimer; P221C/M394C dimer; source: E. coli BL21 (DE3) RIL, purified; the two cysteine variants oxidised with copper phenanthroline, dimer separated on Superdex 200) chain 1: VQTEHAESTYNALEQYGIDLTRLAAEGKLDPVIGRDEEIRRVIQILLRRTKNNPVLIGEPGVGKTAIVEGLAQRIVKGDVCEGLKGKRIVSLQMGSLLAGAKYRGEFEERLKAVIQEVVQSQGEVILFIDELHTVVGAGKAEGAVDAGNMLKPALARGELRLIGATTLDEYREIEKDPALERRFQPVYVDEPTVEETISILRGLKEKYEVHHGVRISDSAIIAAATLSHRYITERRLPDKAIDLIDEAAARLRMALESAPEEIDALERKKLQLEIEREALKKEKDPDSQERLKAIEAEIAKLTEEIAKLRAEWEREREILRKLREAQHRLDEVRREIELAERQYDLNRAAELRYGELPKLEAEVEALSEKLRGARFVRLEVTEEDIAEIVSRWT chain 2: not shown",–,stoichiometry N [2]: ~4 NBD1-M subunits (two cross-linked dimers)
"ClpB NBD1-M wild type (domain or fragment, ClpB from Thermus thermophilus, NBD1 and M-domain, amino acids 141-534; also called unlinked NBD1-M wild type; ClpB construct comprising residues 141-534; source: E. coli BL21 (DE3) RIL, purified) not shown",3,–

# Source: article PMC4239642, “trans-Acting Arginine Residues in the AAA+ Chaperone ClpB Allosterically Regulate the Activity through Inter- and Intradomain Communication*” (The Journal of Biological Chemistry, 2014)
